Among the data in PMC2115214 are fmol bFGF bound to high affinity sites values, retold here.

The target in assay [1] is high-affinity receptor for bFGF on bovine capillary endothelial (BCE) cells (bovine (endogenous in BCE cells)). The assay is described as follows: radioligand binding.
Assay [2] shares this target. Briefly: radioligand binding. The source holds these as a separate data set.

Read-outs that look alike come from different tables or passages of the source.

For the substance “125I-labeled basic fibroblast growth factor (125I-bFGF) (from UniProt P09038 1-288) (ligand)”, the fmol bFGF bound to high affinity sites in assay [1] was 3.1 fmol; in assay [2], 2.6 fmol.
